In experiment [1] the target is E. coli-expressed partial FLNC (aa 1438-2128) (Homo sapiens (Human)) (UniProt Q14315). Description: ELISA, coated protein, negative control.
Experiment [2] deals with T1, HEK293-expressed full length FLNB (human, UniProt O75369 2-2601).
T1 construct: prepared by GenScript; also called full length human FLN-B protein
Description: ELISA, coated protein, negative control. (In an ELISA, binding on a coated surface is turned into a signal by an enzyme label.)

Experiment [3] has as its target HEK293-expressed full length FLNA (Homo sapiens (Human)) (UniProt P21333). Description: ELISA, coated protein, negative control.
The target in experiment [4] is E. coli-expressed partial FLNA (aa1443-2131) (Homo sapiens (Human)) (UniProt P21333). Description: ELISA, coated protein, negative control.
The target of experiment [5] is E. coli-expressed partial FLNB (aa1416-2089), Filamin B immunogen (human) (UniProt O75369). Description: ELISA, coated protein, negative control.
In experiment [6] the target is HEK293-expressed full length FLNA (Homo sapiens (Human)) (UniProt P21333). Description: ELISA, coated protein, hybridoma supernatant.
Experiment [7] has as its target T2, E. coli-expressed partial FLNB (aa1416-2089), Filamin B immunogen (human, UniProt O75369 1416-2089).
T2 construct: covers filamin repeats 13-19; also called partial FLNB protein
T2 sequence: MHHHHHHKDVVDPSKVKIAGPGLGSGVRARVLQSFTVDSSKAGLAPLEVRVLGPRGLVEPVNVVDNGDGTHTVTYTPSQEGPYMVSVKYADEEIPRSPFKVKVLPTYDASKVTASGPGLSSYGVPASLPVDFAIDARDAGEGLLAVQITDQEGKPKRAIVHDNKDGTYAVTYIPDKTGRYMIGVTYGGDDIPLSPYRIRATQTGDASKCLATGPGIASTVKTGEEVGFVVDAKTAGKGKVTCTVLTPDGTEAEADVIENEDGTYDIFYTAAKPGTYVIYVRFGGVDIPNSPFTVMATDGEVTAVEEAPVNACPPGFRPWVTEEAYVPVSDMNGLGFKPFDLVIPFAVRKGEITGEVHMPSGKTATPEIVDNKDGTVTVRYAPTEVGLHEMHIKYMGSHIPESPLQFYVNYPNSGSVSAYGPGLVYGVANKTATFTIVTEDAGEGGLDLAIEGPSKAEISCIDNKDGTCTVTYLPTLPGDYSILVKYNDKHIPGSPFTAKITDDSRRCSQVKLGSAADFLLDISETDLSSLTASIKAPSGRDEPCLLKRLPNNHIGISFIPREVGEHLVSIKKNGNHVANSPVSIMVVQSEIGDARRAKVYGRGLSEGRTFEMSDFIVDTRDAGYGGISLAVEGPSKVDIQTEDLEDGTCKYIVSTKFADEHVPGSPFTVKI
The experiment can be described thus: ELISA, coated protein, hybridoma supernatant. The text has this: (§1) Filamin A (FLNA) and Filamin C (FLNC) are the other two members in the Filamin family; they share 69% and 61% identity to FLNB, respectively. The clones were screened for negative with E. coli-expressed partial FLNA (aa1443-2131) and E. coli-expressed FLNC (aa 1438-2128) which cover the same region as FLN-B (aa1416-2089), and HEK293-expressed full length FLNA. 10% human serum was further tested for any unexpected cross-reactivity. The Partial FLNA (aa 1443-2131) protein sequence is shown in SEQ ID NO: 32. Partial FLNC (aa 1438-2128) protein sequence is shown in SEQ ID NO: 33. Full length FLNA protein sequence is shown in SEQ ID NO: 34.
(§2) Next, the proteins were coated and tested for supernatants from clones 3F10 and 5H7 by ELISA. […] FLNB proteins were tested for specificity, while homologous proteins FLNA and FLNC from the same family were tested for any cross-reactivity. 10% pooled normal human serum was also included for any unexpected non-specific binding.

Experiment [8] has as its target T3, E. coli-expressed partial FLNA (aa1443-2131) (Homo sapiens (Human), UniProt P21333 1443-2131).
T3 construct: Covers the same region as FLNB aa1416-2089; also called Partial Filamin A (aa 1443-2131)
T3 sequence: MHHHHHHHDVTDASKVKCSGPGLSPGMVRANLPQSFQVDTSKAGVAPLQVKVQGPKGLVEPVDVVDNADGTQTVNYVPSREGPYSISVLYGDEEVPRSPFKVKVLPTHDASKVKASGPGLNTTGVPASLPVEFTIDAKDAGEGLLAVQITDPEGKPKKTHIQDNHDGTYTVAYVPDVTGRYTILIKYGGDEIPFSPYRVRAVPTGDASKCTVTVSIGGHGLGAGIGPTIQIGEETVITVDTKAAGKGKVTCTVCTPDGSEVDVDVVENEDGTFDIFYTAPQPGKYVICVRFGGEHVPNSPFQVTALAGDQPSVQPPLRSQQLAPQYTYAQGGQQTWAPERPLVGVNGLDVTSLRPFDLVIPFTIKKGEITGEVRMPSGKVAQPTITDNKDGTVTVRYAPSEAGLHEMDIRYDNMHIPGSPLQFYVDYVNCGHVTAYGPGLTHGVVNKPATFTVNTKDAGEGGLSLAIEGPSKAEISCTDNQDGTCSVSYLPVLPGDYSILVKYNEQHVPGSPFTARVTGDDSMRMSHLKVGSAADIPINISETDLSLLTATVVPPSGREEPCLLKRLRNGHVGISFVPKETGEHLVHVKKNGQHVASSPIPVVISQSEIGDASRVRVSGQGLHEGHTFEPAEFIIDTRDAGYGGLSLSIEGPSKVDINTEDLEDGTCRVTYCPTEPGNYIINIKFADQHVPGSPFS
The experiment can be described thus: ELISA, coated protein, hybridoma supernatant.
Text: as §1, §2

Experiment [9] has as its target T1, HEK293-expressed full length FLNB. The experiment can be described thus: ELISA, coated protein, hybridoma supernatant.
Text: as §1, §2

In experiment [10] the target is T4, E. coli-expressed partial FLNC (aa 1438-2128) (Homo sapiens (Human), UniProt Q14315 1438-2128).
T4 construct: Covers the same region as FLNB aa1416-2089; also called Partial Filamin C (aa 1438-2128)
T4 sequence: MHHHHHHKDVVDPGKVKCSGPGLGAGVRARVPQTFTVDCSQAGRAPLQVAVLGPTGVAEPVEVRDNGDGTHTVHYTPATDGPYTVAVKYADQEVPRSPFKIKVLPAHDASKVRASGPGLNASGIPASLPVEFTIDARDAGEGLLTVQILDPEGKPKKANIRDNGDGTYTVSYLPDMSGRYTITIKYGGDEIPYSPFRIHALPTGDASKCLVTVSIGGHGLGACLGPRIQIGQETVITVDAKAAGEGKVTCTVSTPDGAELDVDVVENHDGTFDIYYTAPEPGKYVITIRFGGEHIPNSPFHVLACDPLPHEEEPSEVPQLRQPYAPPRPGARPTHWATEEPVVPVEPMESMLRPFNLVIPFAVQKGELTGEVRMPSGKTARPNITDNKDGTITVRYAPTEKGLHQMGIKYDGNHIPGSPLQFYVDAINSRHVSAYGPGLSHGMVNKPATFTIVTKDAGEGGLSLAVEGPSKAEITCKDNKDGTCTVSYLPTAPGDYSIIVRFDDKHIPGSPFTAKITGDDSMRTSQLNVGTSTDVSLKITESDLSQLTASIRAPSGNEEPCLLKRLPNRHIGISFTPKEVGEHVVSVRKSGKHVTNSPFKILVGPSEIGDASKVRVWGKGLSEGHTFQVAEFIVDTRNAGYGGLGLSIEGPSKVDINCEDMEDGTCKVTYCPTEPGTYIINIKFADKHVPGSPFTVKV
The experiment can be described thus: ELISA, coated protein, hybridoma supernatant.
Text: as §1, §2

Experiment [11] has as its target 10% pooled normal human serum. The experiment can be described thus: ELISA, coated 10% serum, hybridoma supernatant.
Experiment [12] deals with T1, HEK293-expressed full length FLNB. The experiment can be described thus: BLI (Octet), antibody on anti-mIgG Fc capture sensor, FLNB 25 nM. On the technique in general: BLI is a label-free optical method that tracks binding on a fibre tip over time.
The target of experiment [13] is T5, HEK293-expressed full length FLNA (Homo sapiens (Human), UniProt P21333 2-2647).
T5 construct: also called Full length Filamin A
The experiment can be described thus: ELISA, coated protein, hybridoma supernatant.
Text: as §1, §2

Where only a bound is given, the exact number is not on record here.

T1 sequence (O75369 other isoform, or with tags, fused parts or gaps): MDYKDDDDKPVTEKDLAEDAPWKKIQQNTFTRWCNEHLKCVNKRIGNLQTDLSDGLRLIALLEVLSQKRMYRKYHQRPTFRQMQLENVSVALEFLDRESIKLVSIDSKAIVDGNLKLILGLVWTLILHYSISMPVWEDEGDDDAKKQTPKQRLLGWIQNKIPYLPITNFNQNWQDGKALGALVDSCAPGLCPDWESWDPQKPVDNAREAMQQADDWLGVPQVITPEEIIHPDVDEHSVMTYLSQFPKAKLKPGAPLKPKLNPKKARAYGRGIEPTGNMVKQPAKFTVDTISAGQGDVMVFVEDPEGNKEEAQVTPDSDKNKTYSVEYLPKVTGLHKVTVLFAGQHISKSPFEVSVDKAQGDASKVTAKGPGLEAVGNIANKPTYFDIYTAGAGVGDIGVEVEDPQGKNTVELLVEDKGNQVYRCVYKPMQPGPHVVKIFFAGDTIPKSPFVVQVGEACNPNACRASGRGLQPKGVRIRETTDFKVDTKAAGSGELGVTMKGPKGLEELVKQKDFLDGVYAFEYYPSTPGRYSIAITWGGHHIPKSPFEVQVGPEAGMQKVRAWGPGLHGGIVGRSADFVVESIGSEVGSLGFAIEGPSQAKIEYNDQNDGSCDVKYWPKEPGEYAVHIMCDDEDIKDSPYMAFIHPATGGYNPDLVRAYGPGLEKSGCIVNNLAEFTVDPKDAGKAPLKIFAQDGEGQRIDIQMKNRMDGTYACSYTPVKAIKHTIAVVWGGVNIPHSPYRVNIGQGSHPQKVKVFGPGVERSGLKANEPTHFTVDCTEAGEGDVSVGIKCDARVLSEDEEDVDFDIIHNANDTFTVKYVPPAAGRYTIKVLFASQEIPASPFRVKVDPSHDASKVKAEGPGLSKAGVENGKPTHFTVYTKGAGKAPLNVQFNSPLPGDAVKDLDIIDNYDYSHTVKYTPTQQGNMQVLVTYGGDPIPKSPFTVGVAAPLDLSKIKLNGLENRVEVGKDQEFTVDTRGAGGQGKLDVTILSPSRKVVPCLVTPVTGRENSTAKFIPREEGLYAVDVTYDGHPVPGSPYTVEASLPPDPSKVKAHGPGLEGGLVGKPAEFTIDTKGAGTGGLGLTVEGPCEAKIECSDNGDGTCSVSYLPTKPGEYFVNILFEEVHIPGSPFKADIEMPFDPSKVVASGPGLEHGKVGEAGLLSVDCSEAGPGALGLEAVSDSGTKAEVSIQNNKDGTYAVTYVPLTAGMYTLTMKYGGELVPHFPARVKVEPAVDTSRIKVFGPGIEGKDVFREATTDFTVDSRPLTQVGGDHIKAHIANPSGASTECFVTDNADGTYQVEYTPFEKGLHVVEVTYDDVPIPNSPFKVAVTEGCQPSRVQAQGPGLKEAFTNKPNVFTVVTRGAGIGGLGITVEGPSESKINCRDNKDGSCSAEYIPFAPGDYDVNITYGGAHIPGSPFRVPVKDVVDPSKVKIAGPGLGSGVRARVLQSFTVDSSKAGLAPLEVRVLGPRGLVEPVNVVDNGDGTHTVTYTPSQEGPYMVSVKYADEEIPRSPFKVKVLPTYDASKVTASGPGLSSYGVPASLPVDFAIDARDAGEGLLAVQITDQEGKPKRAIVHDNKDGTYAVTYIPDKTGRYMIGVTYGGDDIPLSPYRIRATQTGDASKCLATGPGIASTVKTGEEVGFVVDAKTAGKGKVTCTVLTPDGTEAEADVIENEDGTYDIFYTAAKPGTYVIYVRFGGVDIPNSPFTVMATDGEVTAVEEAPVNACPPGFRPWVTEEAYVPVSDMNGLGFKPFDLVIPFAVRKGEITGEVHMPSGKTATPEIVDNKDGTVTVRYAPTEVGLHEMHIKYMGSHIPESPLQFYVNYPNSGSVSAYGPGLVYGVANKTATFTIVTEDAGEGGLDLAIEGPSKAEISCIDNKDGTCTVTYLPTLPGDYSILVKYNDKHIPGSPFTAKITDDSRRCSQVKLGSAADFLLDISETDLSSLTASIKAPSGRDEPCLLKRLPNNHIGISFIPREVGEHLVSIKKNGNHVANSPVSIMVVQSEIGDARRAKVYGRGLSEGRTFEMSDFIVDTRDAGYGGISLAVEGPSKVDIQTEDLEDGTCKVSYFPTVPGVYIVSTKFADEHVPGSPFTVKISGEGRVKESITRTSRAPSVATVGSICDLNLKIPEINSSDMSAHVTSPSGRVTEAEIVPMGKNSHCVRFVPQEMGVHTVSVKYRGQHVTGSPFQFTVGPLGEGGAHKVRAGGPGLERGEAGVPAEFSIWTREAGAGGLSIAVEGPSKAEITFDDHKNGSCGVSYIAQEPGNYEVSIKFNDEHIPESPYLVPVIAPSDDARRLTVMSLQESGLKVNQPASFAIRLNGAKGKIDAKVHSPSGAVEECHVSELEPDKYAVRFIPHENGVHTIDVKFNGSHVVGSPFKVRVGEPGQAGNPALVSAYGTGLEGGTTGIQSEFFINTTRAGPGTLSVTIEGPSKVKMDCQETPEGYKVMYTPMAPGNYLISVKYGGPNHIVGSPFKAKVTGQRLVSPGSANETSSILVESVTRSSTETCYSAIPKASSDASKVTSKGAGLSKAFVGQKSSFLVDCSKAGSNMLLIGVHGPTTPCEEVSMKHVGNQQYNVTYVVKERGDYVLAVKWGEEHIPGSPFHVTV

As to “Neg ctl (negative control of the specificity ELISA)”, the ELISA test result in [1] is 0.05; in experiment [2] it was 0.06; in [3], 0.073; in experiment [4], 0.05; in experiment [5] it was 0.04.

B1: 5H7 murine monoclonal anti-FLNB antibody (antibody, IgG2b, V domains shown)
VH: DVQLQESGPGLVKPSQSLSLTCSVTGYSITSGYYWNWIRQFPGNKLEWMGYISYDGSNNYNPSLKNRISITRDTSKNQFFLRLNSVTTEDTATYYCARETWASFDYWGQGTTLTVSS
VL: DIVMTQSQKFMSTTVGDRVGITCKASQNVGIAVAWYQQKPGQSPRLLIYSASYRYTGVPDRFSGSGSGTDFTLTINNMQSEDLADYFCQQYSSYPLTFGSGTKLEIK
notes: also called clone 5H7; biotin-linked monoclonal antibody specific for FLNB (5H7)
Take B1: the ELISA test result in [6] was determined as 0.191; in [7], 3.48; in experiment [8] it was 0.05; in [9], 3.49; in experiment [10], 0.05; in experiment [11], 0.123. The binding result in [8] and in experiment [10] was “no binding” throughout. This molecule registered a Kd in [12] of less than 1 pM. Besides, the dissociation rate constant (koff) in [12] is less than 1e-07 s⁻¹. This molecule registered a kon in experiment [12] of 250000 M⁻¹ s⁻¹.

B2: 3F10 murine monoclonal anti-FLNB antibody (antibody, V domains shown)
VH: QVQLQQPGAELVKPGASVKLSCKASGYTFTSYWMHWVKQRPGQGLEWIGMIHPNSGSTNYNEKFKSKATLTVDKSSSTAYMQLSSLTSEDSAVYYCAIYGSGPWFAYWGQGTLVTVSA
VL: DIQMTQSPASLSASVGETVTITCRASENIYSSLAWYQQKQGKSPQLLVYYAKTLAEGVPSRFSGSGSGTQFSLKINRLQPEDFGSYYCQHHYGSPLTFGAGTKLELK
notes: Tested as hybridoma supernatant or purified antibody; also called clone 3F10; anti-FLNB antibody (3F10)
With B2, the ELISA test result in experiment [7] is 3.87; in [8] it was 0.05; in experiment [9] it was 2.36; in experiment [13] it was 0.076; in [10] it was 0.06; in experiment [11], 0.048. Also, the binding result in experiment [8], in experiment [13] and in experiment [10] was “no binding” each time. For the same molecule, the Kd in experiment [12] was less than 1 pM. In experiment [12], this molecule came in with a koff of less than 1e-07 s⁻¹. This molecule gave a kon in experiment [12] of 270000 M⁻¹ s⁻¹.

Usually Kd stands for the free concentration of one partner at which half of the binding sites on the other are occupied at equilibrium, for simple one-to-one binding. Read a low Kd as a tighter complex. As a reminder, the koff is the first-order rate constant of dissociation. A higher koff goes with fast dissociation. The kon is the rate constant with which the complex forms.

The values are drawn from patent US20200024335A1 (BERG, published 2020).
